{
  "source": "patent US20040121957A1",
  "about": "(CASE WESTERN RESERVE UNIVERSITY, published 2004)",
  "molecular_target": "wild type CFTR (cystic fibrosis transmembrane conductance regulator) chloride channel (human, UniProt P13569 1-1480, phosphorylated by PKA in the assay (50 units/ml PKA and 2 mM ATP in the cis solution); sites not listed for the assay)",
  "sequence (P13569 whole entry, the tested form may be a part)": "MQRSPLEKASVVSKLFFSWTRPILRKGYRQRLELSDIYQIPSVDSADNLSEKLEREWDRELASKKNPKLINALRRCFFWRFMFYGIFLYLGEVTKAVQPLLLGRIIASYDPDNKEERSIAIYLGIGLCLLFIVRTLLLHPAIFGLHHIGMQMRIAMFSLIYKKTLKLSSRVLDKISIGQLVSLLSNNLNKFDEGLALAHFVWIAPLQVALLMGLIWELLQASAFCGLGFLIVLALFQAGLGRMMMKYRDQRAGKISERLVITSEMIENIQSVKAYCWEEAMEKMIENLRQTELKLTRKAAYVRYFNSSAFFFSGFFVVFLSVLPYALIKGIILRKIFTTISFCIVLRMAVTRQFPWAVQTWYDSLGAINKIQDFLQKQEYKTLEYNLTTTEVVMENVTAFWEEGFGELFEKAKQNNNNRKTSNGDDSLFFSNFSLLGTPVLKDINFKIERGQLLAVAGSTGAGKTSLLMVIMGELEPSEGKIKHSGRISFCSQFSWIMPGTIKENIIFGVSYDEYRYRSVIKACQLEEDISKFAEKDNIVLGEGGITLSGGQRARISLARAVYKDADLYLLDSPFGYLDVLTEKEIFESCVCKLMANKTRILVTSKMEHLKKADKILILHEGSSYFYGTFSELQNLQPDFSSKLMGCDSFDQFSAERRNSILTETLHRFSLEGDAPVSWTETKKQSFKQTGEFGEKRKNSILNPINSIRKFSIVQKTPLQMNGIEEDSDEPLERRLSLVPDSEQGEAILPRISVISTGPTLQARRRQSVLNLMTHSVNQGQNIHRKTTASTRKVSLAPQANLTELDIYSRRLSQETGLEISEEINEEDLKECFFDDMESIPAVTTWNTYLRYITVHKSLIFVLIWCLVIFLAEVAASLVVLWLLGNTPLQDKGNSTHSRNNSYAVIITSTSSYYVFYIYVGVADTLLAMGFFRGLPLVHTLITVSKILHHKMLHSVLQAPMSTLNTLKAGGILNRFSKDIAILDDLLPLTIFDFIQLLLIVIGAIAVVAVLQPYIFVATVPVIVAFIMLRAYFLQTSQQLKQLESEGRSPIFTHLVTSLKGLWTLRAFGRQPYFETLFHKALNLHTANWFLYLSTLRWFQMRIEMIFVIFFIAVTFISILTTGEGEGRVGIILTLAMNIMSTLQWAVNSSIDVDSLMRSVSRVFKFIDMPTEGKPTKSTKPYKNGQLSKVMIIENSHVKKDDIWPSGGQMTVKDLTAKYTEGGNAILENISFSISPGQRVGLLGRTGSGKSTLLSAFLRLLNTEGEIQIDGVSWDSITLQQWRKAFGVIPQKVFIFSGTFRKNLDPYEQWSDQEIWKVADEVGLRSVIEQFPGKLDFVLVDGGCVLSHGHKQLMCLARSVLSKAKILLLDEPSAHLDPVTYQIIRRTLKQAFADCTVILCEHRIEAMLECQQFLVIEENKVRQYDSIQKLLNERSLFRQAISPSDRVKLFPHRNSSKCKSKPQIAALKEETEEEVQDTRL",
  "experiment": "cell-based or functional assay",
  "data": [
    {"binder": "GLEISEEINEEDLKECFFDDME", "note": "[synthetic NEG2 peptide (22 amino acid peptide corresponding to CFTR amino acids 817-838)]", "values": [
      {"measurement": "open probability of single wt-CFTR channel in planar lipid bilayer", "result": "> 2", "unit": "fold"}
    ]}
  ]
}
